Source: patent US20150004190A1
Values joined by “and” are separate entries in the source; they are usually repeats but may differ in a detail not shown here. Identical values can stand only once. Like-named read-outs stand apart in the source and are kept apart here.

Assays:
[1] = molecular target: P1-PE (HIV-1 clade B HXB2) (UniProt P04578); experiment: ELISA, P1-PE in raft liposomes R2 (P1:lipids 1 for 20), nonlinear regression
[2] = molecular target: P1-PE (HIV-1 clade B HXB2) (UniProt P04578)
[3] = molecular target: P1 (aa 630-685) clade B HXB2 HIV-1 (HIV-1 clade B HXB2) (UniProt P04578); experiment: ELISA on coated peptide (FIG. 1)
[4] = molecular target: P1-PE (HIV-1 clade B HXB2) (UniProt P04578); experiment: ELISA, P1-PE in viral liposomes V1 (P1:lipids 1 for 100), nonlinear regression
[5] = molecular target: P1-PE (HIV-1 clade B HXB2) (UniProt P04578); experiment: ELISA, P1-PE in viral liposomes V2 (P1:lipids 1 for 20), nonlinear regression
[6] = molecular target: P1 (aa 630-685) clade B HXB2 HIV-1 (HIV-1 clade B HXB2) (UniProt P04578); experiment: ELISA, P1 without lipid, nonlinear regression
[7] = molecular target: P1-PE (HIV-1 clade B HXB2) (UniProt P04578); experiment: ELISA, P1-PE in raft liposomes R1 (P1:lipids 1 for 100), nonlinear regression

Substance | Kd [1] [nM] | Kd [2] | antibody concentration of equivalent binding activity [3] [nM] | Kd [4] [nM] | Kd [5] [nM] | Kd [6] [nM] | Kd [7] [nM]
2F5 IgG1 (antibody) | 0.51 | 1.33 nM and 0.69 nM | 6.25 | 0.31 | 0.41 | 7.38 | 0.5
2F5 IgA2 (antibody) | 0.061 | 0.15 nM and 0.21 nM | 0.05 | 0.024 | 0.024 | 0.2 | 0.05
